Measured values from paper PMC3800053.

B1: Snx29_Right (dsDNA)
DNA 1: TCAGACACTGAGAATACTGTCAC
DNA 2: GTGACAGTATTCTCAGTGTCTGA
B2: Snx25_A (dsDNA)
DNA 1: TCAGAAAAAGGGAAAAGGGTCAC
DNA 2: GTGACCCTTTTCCCTTTTTCTGA
B3: Snx29_Left (dsDNA)
DNA 1: TCAGATACTGGGAACACTGTCAC
DNA 2: GTGACAGTGTTCCCAGTATCTGA

Target: Ikaros zinc fingers 1-3 (F1-F3) (UniProt Q03267 117-194)
Assay: EMSA

Ikaros zinc fingers 1-3 (F1-F3), sequence (Q03267 117-194): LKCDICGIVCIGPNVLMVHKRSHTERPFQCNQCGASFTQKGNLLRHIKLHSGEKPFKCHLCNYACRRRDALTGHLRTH

| Binder | binding result |
| --- | --- |
| B1 | no binding |
| B2 | no binding |
| B3 | binds |

Target: Ikaros zinc fingers 2-4 (F2-F4) (UniProt Q03267 144-223)
Sequence (Q03267 144-223): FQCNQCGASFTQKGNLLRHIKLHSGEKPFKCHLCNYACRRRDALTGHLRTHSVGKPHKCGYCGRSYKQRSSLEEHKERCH
Assay: EMSA

| Binder | binding result |
| --- | --- |
| B1 | no binding |
| B2 | binds |
| B3 | binds |

Target: Ikaros zinc fingers 1-4 (F1-F4) (UniProt Q03267 117-223)
Sequence (Q03267 117-223): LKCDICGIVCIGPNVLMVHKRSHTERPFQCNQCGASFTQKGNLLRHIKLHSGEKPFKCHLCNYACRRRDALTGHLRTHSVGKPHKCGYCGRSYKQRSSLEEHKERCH
Assay: EMSA

| Binder | binding result |
| --- | --- |
| B1 | no binding |
| B2 | binds |
| B3 | binds |
